Source: the RNAGym collection of RNA variant scans (doi:10.1021/acssynbio.7b00057)

B1: Pistol ribozyme (parent)
chain: GGGUCGUUGUUCCAUAAUCGCGUGGAUAUGGCACGCAAGUUUCUACCGGGCACCGUAAAUGUCCGACUGGAGCCGUUCGGGCGGCUAUAAACAGACCUCAGGCCCGAAGCGUGGCGGCACCUGCCGCCGGUGGUAAAAAAGAUCGGAAGAGCACACGUCU

Variants of: B1
Experiment: aptazyme ON/OFF ratio, guanine; higher = stronger switching; co-transcriptional cleavage with and without guanine

Variant | aptazyme ON/OFF ratio
U7A U8G G9C U10C U11G C12U C13U | 1.41
U10G U11C C12G C13U | 1.48
U10G U11C C12G C13A | 1.28
U7G U8G G9A U10C U11G C13A | 1.27
U7A U8A G9U U10A U11A C12G C13A | 1.15
U7A G9U U10C U11C C12A | 1.09
U7C U8G G9C U11C C12G C13G | 1.08
U7A U8A G9U U10G C12U C13U | 1.51
U8C G9A U10C U11C C13U | 1.01
U8G G9A U10C U11C C12G | 1.05
U7A U8A G9C U10A U11G C12U C13U | 1.14
U7G U8G G9A U10G U11G C12U C13G | 1.27
U7C U8A U10A U11A C12A C13A | 1.25
U7A G9A U10G U11C C12U C13U | 1.21
U8A U10A U11C C12A C13A | 1.08
U7C U8G G9A C13A | 1.14
U7G U10A U11A C12G | 1.1
U7G U8G G9A U10C U11C C12A C13G | 1.2
G9A U10G U11A C12U C13U | 1.24
U7C U8A G9C U10G U11A C13U | 1.04
U7A U8A G9C U10G U11A C13U | 1.04

Variant | aptazyme ON/OFF ratio
U7A U8C G9C U10G C12U C13A | 1.06
U7G U8A G9A U10A U11G C12A C13A | 1.07
U7A U8A G9C U10C U11C C12G C13G | 1.04
U8A U10C U11C C12G C13A | 1.21
U7A G9A U10G U11A C12G C13A | 1.12
U7C U8C G9A U10G U11G C12U C13G | 1.11
U7A G9A U10A C13G | 1.09
U7G U10A U11A C12A C13U | 1.07
U7C U8C U10G U11A C12G C13A | 1.08
G9U U10G U11C C12U | 1.08
U8G U10C C12A C13G | 1.07
U8C G9U U11G C12A C13G | 1.18
U7C U8G G9A U10A C12G C13A | 1.11
U7A U8C C12U C13A | 1.3
U7A U8C U11C | 1.2
U7C U8A U10C U11G C12U C13A | 1.28
U7C U8C G9A U11G C12G C13U | 1.11
U7A U8G G9U U10A U11A C13G | 1.15
U7C U8G G9C U10A U11G C12A C13G | 1.19
U7C G9U U10G C12A C13A | 1.09
U7C U8C U10C U11C C12U | 1.26

Variant | aptazyme ON/OFF ratio
U7A U8G G9U U10G U11C C12G | 1.16
U7A U8G G9U | 3.18
U8A G9A U10G U11A C12A C13A | 1.19
U8C U10C U11C C12A C13A | 1.32
U8A G9U U10A U11C C13A | 1.04
G9C U10A U11C C13U | 1.06
U8G U11A C13A | 1.24
U7A G9U U10A C12U C13G | 1.13
U7G U8C U10C U11A C12U C13U | 1.04
U11A C12U | 1.64
G9C U10A C12G C13A | 1.31
U7G G9C U10G U11G C13U | 1.36
U7G U8G G9U U10A U11G C12A C13A | 1.1
U7A U8A G9C U10C U11G C12G C13A | 1.1
U7A U8G G9A U10C U11A C12A | 1.24
U7G U8C G9U U10C U11G C13U | 1.38
U7G U8C G9A C12A C13A | 1.08
G9U U10G U11C C12U C13G | 1.17
U8G G9U U10C U11G C12G C13G | 1.14
U7A G9U U10C C12G C13A | 1.07
U7A U8G G9A U10G U11G | 1.39

Variant | aptazyme ON/OFF ratio
U7A U8C G9C U10C U11G C13A | 1.07
U7G U8G C12A C13A | 1.31
U7A U8A U10C U11G | 1.2
U7G U8C G9A U10G U11C C12A C13U | 1.19
U7G U8G U10A C12U C13A | 1.16
U7G G9U U11A C12G | 1.46
U7C U8A U11G C12G C13U | 1.13
U7C G9C U10C U11G C12G C13A | 1.11
U7A U8A G9A U11A C13G | 1.11
U7G C13A | 1.08
U7G U8A G9U U10C U11A C12G C13U | 1.09
U7A U8G G9U U11G C12G C13G | 1.19
U7G U8A U10G U11A C12G C13A | 1.11
G9C U11A | 1.78
U7A G9U U10C U11A C12A C13G | 1.15
U7A U8G G9U U10A U11C C12U C13U | 1.2
U7C U8G U11G | 1.2
U8C G9C U10G U11C C13A | 1.3
U7A G9U U10A U11A C12U C13A | 1.3
U7C U8G G9U U10A U11G C12A | 1.11
U7C G9A U11G C13U | 1.11
